{
  "source": "patent US12359240B2",
  "about": "“Membrane protease-based methods for detection of bacteria” (Nanyang Technological University, priority 2019, dated 2025)",
  "key": {"OmpT [1]": {"molecular_target": "T1, OmpT (Escherichia coli, UniProt P09169)", "T1 sequence (P09169 21-317)": "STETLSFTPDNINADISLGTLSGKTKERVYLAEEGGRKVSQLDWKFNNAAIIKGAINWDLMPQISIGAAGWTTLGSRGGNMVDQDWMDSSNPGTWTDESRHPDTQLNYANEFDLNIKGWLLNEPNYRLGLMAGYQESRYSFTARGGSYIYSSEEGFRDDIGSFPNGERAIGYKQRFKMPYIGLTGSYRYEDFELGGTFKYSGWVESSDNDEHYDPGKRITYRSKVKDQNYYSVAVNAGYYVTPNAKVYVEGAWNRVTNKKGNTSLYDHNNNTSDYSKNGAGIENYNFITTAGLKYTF", "description": "This OmpT was obtained by overexpressing the protein in E. coli BL21 as inclusion bodies using a protocol reported earlier [Kramer, R. A. Zandwijken, D. Egmond, M. R. Dekker, N. Eur. J. Biochem. 267, 885-893 (2000)]. Briefly, the inclusion bodies were unfolded and solubilized using 8 M urea and subsequently refolded in the presence of DodMe2NPrSO3, a zwitterionic detergent. The refolded OmpT was purified and stored at 4° C. for further use. […] To this 100 μL reaction mixture, 10 μL of PTAA stock solution (0.1 mg/mL) was added. Fluorescence measurements and absorbance scans were collected as mentioned before. The raw fluorescence (F.) intensity scans are either plotted as is or reported as % fluorescence increase. The following formula was applied to convert fluorescence intensity (a.u.) to % fluorescence increase: […]"}, "OmpT [2]": {"molecular_target": "T1, OmpT", "remark": "listed apart in the source"}, "OmpT [3]": {"molecular_target": "T1, OmpT", "conditions": "20 μM peptide, OmpT 6 hours, FIG. 17"}, "E. coli K12": {"tested_on": "E. coli K12", "test": "Detection of E. coli in contaminated water with the LL37 peptides and PT6", "format": "cell-based, Escherichia coli", "conditions": "10^8 CFU/mL E. coli K12, FIG. 14A"}, "[4]": {"test": "PTAA-peptide fluorescence and optical absorption measurements (no enzyme)", "conditions": "550 nm; peptide's highest concentration", "description": "All PTAA and LL37FRRY mixing were carried out in the reaction buffer. All optical absorption and fluorescence measurements were carried out on 100 μL samples in a flat bottom 96 well plate using a TECAN Infinite® 200 PRO(Switzerland). Optical absorption measurements were collected from 330-650 nm. […] To understand the effect of intact and cleaved fragments on the fluorescence intensity and optical absorption of PTAA, LL37FRRV, frag1LL37FRRV (SEQ ID NO: 47) and frag2LL37FRRV (SEQ ID NO: 48) were added in different ratios (10:0, 8:2, 6:4, 4:6, 2:8, 0:10) while keeping the total peptide concentration at 50 μM. The fluorescence intensity and optical absorption spectra were measured as mentioned before."}, "[5]": {"test": "PT6-peptide fluorescence measurements (no enzyme)", "conditions": "FIG. 18", "description": "Stock solutions of PT6 was prepared in a reaction buffer such that the absorbance at λmax was ˜1.4. All absorbance and fluorescence measurements were carried out on 100 μL samples in a flat bottom 96 well plate using a TECAN Infinite® 200 PRO (Switzerland). Fluorescence scans were collected by exciting the samples at 495 nm, further recording their emission spectrum from 525-750 nm. […] In order to study the effect of cysteine on PT6 fluorescence, different concentrations (150-6.25 μM) of the two peptides (Table 12) were prepared from the stock and mixed with PT6 such that the final concentration of the PT is a 10 time dilution of the stock. The fluorescence intensities were measured as described above."}, "OmpT [6]": {"molecular_target": "T1, OmpT", "conditions": "for rate of reduction in PT6 fluorescence (cleavage by OmpT) relative to the peptide of Examples 1-5: interpreted from the slope"}, "OmpT and PgtE": {"tested_on": "OmpT and PgtE", "test": "Substrate preference of OmpT versus PgtE, change in PT6 fluorescence with time", "format": "biochemical, E. coli K-12; Salmonella typhi", "conditions": "FIG. 15"}},
  "note": "Where no end group is shown, it is not given here.",
  "data": [
    {"substance": "C L L G D F F R R V K E K I G (CLLGDFFRRVKEKIG; LL37FRRV)", "values": [
      {"measurement": "increase in PTAA fluorescence intensity when mixed with OmpT-cleaved peptide fragments", "setting": "OmpT [1]; peptide treated with OmpT in detergent micelles", "value": "no more than 20%"},
      {"measurement": "times better then original peptide (substrate specific for OmpT)", "setting": "OmpT [2]; SAMDI-MS peptide array, versus original peptide", "value": 400, "unit": "times"}
    ]},
    {"substance": "C L L G D F F R R Y K E K I G (CLLGDFFRRYKEKIG; LL37FRRY)", "values": [
      {"measurement": "difference in PTAA fluorescence intensity between intact peptide and peptide digested with OmpT", "setting": "OmpT [3]", "value": "largest difference"},
      {"measurement": "rate of reduction in PT6 fluorescence", "setting": "E. coli K12", "value": "faster rate"},
      {"measurement": "overall increase in PTAA's fluorescence intensity upon peptide addition", "setting": "[4]", "value": "~200", "unit": "%"},
      {"measurement": "PT6 fluorescence intensity, peptide with versus without terminal cysteine", "setting": "[5]", "value": "much higher fluorescence intensity"},
      {"measurement": "PTAA's fluorescence intensity less than with peptide in the absence of OmpT", "setting": "OmpT [1]; 42 nM OmpT, 2 hours, 50 μM peptide", "value": "~175", "unit": "%"},
      {"measurement": "incubation time with OmpT of the sample showing colour change from bronze to purple", "setting": "OmpT [6]; PT6, normal visible light, FIG. 13B top", "value": 70, "unit": "min"},
      {"measurement": "rate of reduction in PT6 fluorescence (cleavage by OmpT) relative to the peptide of Examples 1-5", "setting": "OmpT [6]", "value": "faster rate"}
    ]},
    {"substance": "C L L G D F F R R A K E K I G (CLLGDFFRRAKEKIG; LL37FRRA)", "values": [
      {"measurement": "rate of reduction in PT6 fluorescence", "setting": "E. coli K12", "value": "faster rate"},
      {"measurement": "rate of reduction in PT6 fluorescence (cleavage by OmpT) relative to the peptide of Examples 1-5", "setting": "OmpT [6]", "value": "faster rate"}
    ]},
    {"substance": "C L L G D F Y R R A K E K I G (CLLGDFYRRAKEKIG; LL37YRRA)", "values": [
      {"measurement": "rate of reduction in PT6 fluorescence", "setting": "E. coli K12", "value": "faster rate"},
      {"measurement": "rate of reduction in PT6 fluorescence (cleavage by OmpT) relative to the peptide of Examples 1-5", "setting": "OmpT [6]", "value": "faster rate"}
    ]},
    {"substance": "C L L G D F A R R A K E K I G (CLLGDFARRAKEKIG; LL37ARRA)", "values": [
      {"measurement": "substrate preference of OmpT compared with PgtE", "setting": "OmpT and PgtE", "value": "OmpT exhibits a higher preference"}
    ]},
    {"substance": "FRRV: library peptide of type AcGX1RRX2GC carrying the tetrapeptide sequence FRRV at the cleavage site (Ac-GFRRVGC)", "values": [
      {"measurement": "cleavage by OmpT of library peptide AcGX1RRX2GC", "setting": "OmpT [2]; tetrapeptide sequence at the cleavage site", "value": "efficiently cleaved"}
    ]}
  ]
}
